From PMC12949589 (Neurobiology of disease, 2020)

Biological target: T1, PACT C213F, mammalian two-hybrid fusion (human, UniProt O75569 1-313, C213F)
T1 sequence (looked up): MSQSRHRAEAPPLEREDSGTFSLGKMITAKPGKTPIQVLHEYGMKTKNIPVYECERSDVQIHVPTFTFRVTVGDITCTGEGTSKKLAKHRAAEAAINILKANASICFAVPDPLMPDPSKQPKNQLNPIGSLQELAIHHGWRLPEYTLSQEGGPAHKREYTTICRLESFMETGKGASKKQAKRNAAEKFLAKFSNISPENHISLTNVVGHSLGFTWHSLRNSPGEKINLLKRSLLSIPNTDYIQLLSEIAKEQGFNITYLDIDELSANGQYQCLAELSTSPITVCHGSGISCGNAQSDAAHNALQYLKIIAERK
Experiment: two-hybrid

fold over wt PACT-wt PACT interaction (luciferase reporter): ~9 fold
B1: PACT C77S, mammalian two-hybrid fusion (natural protein, human, UniProt O75569 1-313, looked up)
chain: MSQSRHRAEAPPLEREDSGTFSLGKMITAKPGKTPIQVLHEYGMKTKNIPVYECERSDVQIHVPTFTFRVTVGDITSTGEGTSKKLAKHRAAEAAINILKANASICFAVPDPLMPDPSKQPKNQLNPIGSLQELAIHHGWRLPEYTLSQEGGPAHKREYTTICRLESFMETGKGASKKQAKRNAAEKFLAKFSNISPENHISLTNVVGHSLGCTWHSLRNSPGEKINLLKRSLLSIPNTDYIQLLSEIAKEQGFNITYLDIDELSANGQYQCLAELSTSPITVCHGSGISCGNAQSDAAHNALQYLKIIAERK
